Experimental data from patent US20240059788A1 (Kyowa Kirin, published 2024).

Tests used:
human EpCAM-GST = biological target: T1, human EpCAM-GST (human, UniProt P16422 24-265); assay: phage ELISA on immobilized EpCAM-GST
T1 construct: also called soluble human EpCAM antigen; not shown: GST added to the C terminus (N5 vector)
T1 sequence: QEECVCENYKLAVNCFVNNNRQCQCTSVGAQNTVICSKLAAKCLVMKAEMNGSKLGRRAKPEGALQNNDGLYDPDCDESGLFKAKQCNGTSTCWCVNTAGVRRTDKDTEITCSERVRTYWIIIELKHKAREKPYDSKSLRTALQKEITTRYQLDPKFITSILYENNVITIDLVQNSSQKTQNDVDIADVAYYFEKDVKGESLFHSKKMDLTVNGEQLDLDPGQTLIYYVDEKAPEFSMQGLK

monkey EpCAM-GST = biological target: T2, monkey EpCAM-GST (monkey, UniProt Q1WER1 24-265); assay: phage ELISA on immobilized EpCAM-GST
T2 construct: not shown: GST added to the C terminus (N5 vector)
T2 sequence: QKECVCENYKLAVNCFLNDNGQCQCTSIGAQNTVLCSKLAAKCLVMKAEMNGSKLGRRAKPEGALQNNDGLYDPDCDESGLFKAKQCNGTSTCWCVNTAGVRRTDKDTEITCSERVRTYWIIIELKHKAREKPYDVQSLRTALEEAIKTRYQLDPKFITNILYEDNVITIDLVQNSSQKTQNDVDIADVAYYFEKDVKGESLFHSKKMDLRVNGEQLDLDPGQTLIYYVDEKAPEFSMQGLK

mouse EpCAM-GST = biological target: T3, mouse EpCAM-GST (mouse, UniProt Q99JW5 24-266); assay: phage ELISA on immobilized EpCAM-GST
T3 construct: not shown: GST added to the C terminus (N5 vector)
T3 sequence: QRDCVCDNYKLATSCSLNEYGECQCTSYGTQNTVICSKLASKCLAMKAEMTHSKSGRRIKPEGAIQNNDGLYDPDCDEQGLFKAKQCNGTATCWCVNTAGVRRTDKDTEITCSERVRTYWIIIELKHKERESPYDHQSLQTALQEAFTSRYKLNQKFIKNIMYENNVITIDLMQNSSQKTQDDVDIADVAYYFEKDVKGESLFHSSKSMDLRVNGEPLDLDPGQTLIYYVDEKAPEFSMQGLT

human CD40-GST = biological target: T4, human CD40-GST (human, UniProt P25942 21-193); assay: phage ELISA on immobilized CD40-GST
T4 construct: also called soluble human CD40 antigen; not shown: GST region of the N5 vector
Experimental: (§1) In the ELISA, MAXISORP (manufactured by NUNC, Inc.) in which the human or monkey CD40-GST in Example 1 was immobilized on each well and a portion to which the human or monkey CD40-GST is not bound was blocked using SuperBlock Blockig Buffer (manufactured by Thermo Fisher, Inc.) was used. To each well, each phage clone was added and reacted at room temperature for 30 minutes, and thereafter, each well was washed 3 times with PBS-T.
(§2) Subsequently, an anti-M13 antibody (manufactured by GE Healthcare, Inc.) labeled with horseradish peroxidase was diluted by 5000 times with PBS-T containing 10% Block Ace (manufactured by Dainippon Pharmaceutical Co., Ltd.), and the resultant was added in an amount of 50 μL to each well, and incubated at room temperature for 30 minutes. After the microplate was washed four times with PBS-T, a TMB chromogenic substrate solution (manufactured by DAKO, Inc.) was added in an amount of 50 μL to each well and incubated at room temperature for 10 minutes.

monkey CD40-GST = biological target: T5, monkey CD40-GST (monkey, UniProt P25942 21-193 (human entry)); assay: phage ELISA on immobilized CD40-GST
T5 construct: not shown: GST region of the N5 vector
T5 chain: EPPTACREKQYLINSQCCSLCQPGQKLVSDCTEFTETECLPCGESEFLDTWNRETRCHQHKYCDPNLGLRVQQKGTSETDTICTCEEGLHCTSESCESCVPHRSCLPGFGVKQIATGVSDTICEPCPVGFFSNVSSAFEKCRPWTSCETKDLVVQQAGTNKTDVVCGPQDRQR
Experimental: as §1, §2

[1] = biological target: T6, human CD40 on Ramos cells (human, UniProt P25942 21-277); assay: flow cytometry on Ramos cells, detection with goat F(ab')2 anti-human IgG R-PE [A]
T6 construct: Native CD40 of Ramos cells (Burkitt's lymphoma)
Experimental: (§3) Ramos cells were suspended in Staining Buffer (SB) that is D-PBS(−) containing 0.1% NaN₃ and 1% FBS at a cell density of 1×10⁶ cells/mL, and the suspension was dispensed in a 96-well round bottom plate (manufactured by Falcon, Inc.) at 100 μL/well.
(§4) After further centrifugation (2000 rpm, 4° C., 2 minutes), the supernatant was removed, the resulting pellet was washed three times with 200 μL/well of SB, and thereafter, 1 μg/mL of Goat F(ab′)₂ Anti-Human IgG (γ chain specific) R-phycoerythrin (R-PE) Conjugate (manufactured by Southern Biotech, Inc.) was added at 50 μL/well, and the resultant was incubated for 30 minutes at ice temperature. After washing twice with SB, the cells were suspended in 200 μL/well of SB, and the fluorescence intensity of each cell was measured using a flow cytometer FACSCANTO II (manufactured by Becton, Dickinson and Company).

[2] = biological target: T7, human EpCAM on human EpCAM/HEK 293 cells and Colo 205 cells (human, UniProt P16422 24-314); assay: flow cytometry on Colo 205 cells and on human EpCAM/HEK 293 cells, antibody at 10 ug/mL, detection with goat F(ab')2 anti-human IgG R-PE [B), (D]
T7 construct: Colo 205 cells carry native EpCAM; also called hEpCAM
T7 sequence: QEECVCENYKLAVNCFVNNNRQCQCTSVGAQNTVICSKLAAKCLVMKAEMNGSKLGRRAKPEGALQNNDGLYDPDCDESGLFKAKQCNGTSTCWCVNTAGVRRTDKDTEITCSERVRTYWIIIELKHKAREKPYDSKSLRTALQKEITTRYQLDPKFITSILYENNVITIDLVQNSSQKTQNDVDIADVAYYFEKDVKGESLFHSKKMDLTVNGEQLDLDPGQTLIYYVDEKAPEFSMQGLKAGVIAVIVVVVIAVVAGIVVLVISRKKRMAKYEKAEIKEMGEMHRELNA
Experimental: as §3, §4
(§5) Similarly, Colo 205 cells, HEK 293 cells, and human EpCAM/HEK 293 cells were evaluated, respectively. As the negative control, IgG4 antibodies 5228P, L235E, and R409K mutants (hereinafter referred to as anti-DNP antibodies) produced according to the method described in Example 5 of WO 2006/033386 using a vector encoding VL and VH (GenBank accession No. VL U16688, VH U116687) of the 2,4-dinitrophenol (DNP) antibody described in Mol Immunol. 1996 June; 33 (9): 759-68 were used.

mouse CD40 = biological target: T8, mouse CD40 (mouse, UniProt P27512 20-193, limits assumed); assay: not described
T8 sequence (looked up): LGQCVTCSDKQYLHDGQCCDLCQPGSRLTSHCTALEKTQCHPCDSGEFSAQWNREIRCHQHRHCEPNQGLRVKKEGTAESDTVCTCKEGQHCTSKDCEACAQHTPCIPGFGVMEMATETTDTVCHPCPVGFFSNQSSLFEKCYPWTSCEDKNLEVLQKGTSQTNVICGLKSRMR

[3] = biological target: T7, human EpCAM on human EpCAM/HEK 293 …; assay: flow cytometry on Colo 205 cells and on human EpCAM/HEK 293 cells, detection with goat F(ab')2 anti-human IgG R-PE [B), (D]
Experimental: as §3, §4, §5

B1: Epc112 phage clone (scFv, V domains shown)
VH: EVQLVQSGTEVKKPGASVKVSCRASGNTFTNYYIHWVRQAPGQGLEWMGIINPSGGATNYAQILQGRVTMTRDTSTSTVYMELSSLRSEDTAVYYCAGGGSAATFAYWGQGTLVTVSS
VL: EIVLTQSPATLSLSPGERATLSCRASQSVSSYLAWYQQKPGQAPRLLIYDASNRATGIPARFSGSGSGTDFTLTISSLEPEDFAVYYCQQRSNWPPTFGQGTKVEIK
Human EpCAM-GST
  binding result: binds
Monkey EpCAM-GST
  binding result: binds
Mouse EpCAM-GST
  binding result: binds

B2: R2089 phage clone (scFv, V domains shown)
VH: EVQLVQSGAEVKKPGASVKVSCKASGYSFTRYIMHWVRQAPGQRLEWMGWINAGNGNTKYSQKFQGRVTITRDTSANTAYMELSSLRSEDTAVYYCARDEPVAGSFFDYWGQGTLVTVSS
VL: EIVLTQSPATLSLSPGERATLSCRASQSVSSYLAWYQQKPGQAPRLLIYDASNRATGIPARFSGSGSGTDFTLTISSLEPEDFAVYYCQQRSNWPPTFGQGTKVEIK
Human CD40-GST
  binding result: binds
Monkey CD40-GST
  binding result: binds

B3: anti-EpCAM monoclonal antibody 3622W94 (antibody, V domains shown)
VH: QVQLVQSGPEVKKPGASVKVSCKASGYTFTNYGMNWVRQAPGQGLEWMGWINTYTGEPTYGEDFKGRFAFSLDTSASTAYMELSSLRSEDTAVYFCARFGNYVDYWGQGSLVTVSS
VL: DIVMTQSPLSLPVTPGEPASISCRSSKNLLHSNGITYLYWYLQKPGQSPQLLIYQMSNLASGVPDRFSSSGSGTDFTLKISRVEAEDVGVYYCAQNLEIPRTFGQGTKVEIK
[1]
  binding result: no binding (tested: 10 ug/mL)
[2]
  binding result: binds

B4: R2178 phage clone (scFv, V domains shown)
VH: QVQLQQWGAGLLKPSETLSLTCAVYGGSFSGYYWSWIRQSPGKGLEWIGEINHGGITNYNPSLKSRVTISVDTSKNQFSLKLGSVTAADTAVYYCARDNYYGSGSNDGVYQYYGIDVWGQGTTVTVSS
VL: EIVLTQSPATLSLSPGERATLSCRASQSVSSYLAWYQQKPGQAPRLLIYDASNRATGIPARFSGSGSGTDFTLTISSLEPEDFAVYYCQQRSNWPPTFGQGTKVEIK
Human CD40-GST
  binding result: binds
Monkey CD40-GST
  binding result: binds

B5: Ep203 phage clone (scFv, V domains shown)
VH: EVQLVQSGAEVKKPGASVKVSCKASGFTFSSYYMHWVRQAPGQGLEWMGIVNPTGGATSYAQKFQGRVTMTRDTSTSTVYMELSSLRSEDTAVYYCAKHGYGASTLFDSWGQGTLVTVSS
VL: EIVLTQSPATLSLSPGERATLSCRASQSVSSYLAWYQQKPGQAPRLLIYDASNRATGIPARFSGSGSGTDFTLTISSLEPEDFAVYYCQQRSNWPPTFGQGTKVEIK
Human EpCAM-GST
  binding result: binds
Monkey EpCAM-GST
  binding result: binds
Mouse EpCAM-GST
  binding result: binds

B6: anti-CD40 monoclonal antibody 21.4.1 (antibody, V domains shown)
VH: not shown
VL: DIQMTQSPSSVSASVGDRVTITCRASQGIYSWLAWYQQKPGKAPNLLIYTASTLQSGVPSRFSGSGSGTDFTLTISSLQPEDFATYYCQQANIFPLTFGGGTKVQIK
notes: also called anti-CD40 agonistic antibody; CP870,893
Mouse CD40
  binding result: no binding
[3]
  binding result: no binding (tested: 10 ug/mL)

B7: Epc051 phage clone (scFv, V domains shown)
VH: EVQLVQSGAEVKKPGASVKVSCKASGYTFTSNYMHWVRQAPGQGLEWMGIINPSGGATSYAQKFQGRVTMTRDTSTSTVYMELSSLRSEDTAVYYCASGGYYGSVIMDVWGQGTLVTVSS
VL: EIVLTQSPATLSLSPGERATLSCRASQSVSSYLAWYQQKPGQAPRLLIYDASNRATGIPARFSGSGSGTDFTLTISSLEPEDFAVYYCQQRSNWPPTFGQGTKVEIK
Human EpCAM-GST
  binding result: binds
Monkey EpCAM-GST
  binding result: binds
Mouse EpCAM-GST
  binding result: binds

B8: R1066 phage clone (scFv, V domains shown)
VH: QVQLQQWGAGLLKPSETLSLTCAVYGGSFSGYYWSWIRQPPGKGLEWIGEINHGGITHYNPSLKSRVTISVDTSKNQFSLKLSSVTAADTAVYYCARDNYYGSGSYYKYDYYGMDVWGQGTTVTVSS
VL: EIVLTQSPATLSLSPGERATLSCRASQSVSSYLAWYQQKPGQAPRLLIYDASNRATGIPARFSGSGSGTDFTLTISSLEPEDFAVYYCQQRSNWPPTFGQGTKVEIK
Human CD40-GST
  binding result: binds
Monkey CD40-GST
  binding result: binds
